This is an account of results in article PMC12366243, “Genomic context analysis enables the discovery of an unusual NAD‐dependent racemase in phosphonate catabolism” (The Febs Journal, 2025).

Data set [1] addresses 2-amino-1-hydroxyethylphosphonate racemase (PbfF) from Mesorhizobium plurifarium (Mesorhizobium plurifarium). Nature of the data set: SEC; analytical SEC, data not shown; 50 uL of 108 uM PbfF (monomer concentration) on Superdex 200 Increase 5/150 GL; 50 mM Tris, 200 mM NaCl, pH 7.9; 0.3 mL/min; calibrated with proteins of known molecular mass.
Data set [2] has as its target T1, PbfF (2-amino-1-hydroxyethylphosphonate racemase; HAEP racemase) (Mesorhizobium plurifarium, UniProt A0A090EUR6).
T1 construct: full-length, codon-optimized synthetic gene in pET24-C-His-tag (NdeI/NotI), C-terminal His tag kept; E. coli Tuner (DE3)
Nature of the data set: continuous coupled assay (PbfA, PhnX, NADP-dependent ADH), NADPH decrease at […] nm. The format is biochemical.

The test system of data set [3] is T2, NC(=O)c1ccc[n+]([C@@H]2O[C@H](COP(=O)(O)OP(=O)(O)OC[C@H]3O[C@@H](n4cnc5c(N)ncnc54)[C@H](O)[C@@H]3O)[C@@H](O)[C@H]2O)c1.
T2 construct: full-length, codon-optimized synthetic gene in pET24-C-His-tag (NdeI/NotI), C-terminal His tag kept; E. coli Tuner (DE3)
Briefly: purified protein. As to conditions: 1 mM S-HAEP, 5 mM MgCl2, 50 mM TEA-HCl pH 8.0, 25 °C, exogenous NAD+, varied: cofactor. The format is biochemical, Mesorhizobium plurifarium.

Another data set concerns T3, NC[C@@H](O)P(=O)(O)O.
T3 construct: full-length, codon-optimized synthetic gene in pET24-C-His-tag (NdeI/NotI), C-terminal His tag kept; E. coli Tuner (DE3)
Nature of the data set: purified protein. The class given is biochemical, Mesorhizobium plurifarium. As to conditions: 1 mM NAD+, 5 mM MgCl2, 50 mM TEA-HCl pH 8.0, 25 °C, S-HAEP to R-HAEP.

T1 sequence (A0A090EUR6 1-336): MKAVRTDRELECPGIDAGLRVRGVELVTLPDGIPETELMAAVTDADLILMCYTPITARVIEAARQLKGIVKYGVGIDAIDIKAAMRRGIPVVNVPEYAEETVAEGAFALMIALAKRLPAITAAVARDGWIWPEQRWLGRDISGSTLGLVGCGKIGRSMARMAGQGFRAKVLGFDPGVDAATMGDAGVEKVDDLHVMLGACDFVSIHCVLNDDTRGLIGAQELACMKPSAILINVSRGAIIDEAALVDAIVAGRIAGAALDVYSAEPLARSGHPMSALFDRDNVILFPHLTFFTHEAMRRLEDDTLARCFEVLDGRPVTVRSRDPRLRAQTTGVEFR

On to “2-amino-1-hydroxyethylphosphonate racemase (PbfF) from Mesorhizobium plurifarium (enzyme)”, for which the stoichiometry N in data set [1] worked out at 2. For `NC(=O)C1=CN([C@@H]2O[C@H](COP(=O)(O)OP(=O)(O)OC[C@H]3O[C@@H](n4cnc5c(N)ncnc54)[C@H](O)[C@@H]3O)[C@@H](O)[C@H]2O)C=CC1` [NADH], in data set [2], the inhibition at 60 µM is roughly 50%. Consider “PbfF (2-amino-1-hydroxyethylphosphonate racemase; HAEP racemase) (Mesorhizobium plurifarium)”, for which the K0.5 in data set [3] came to 200 µM. Also, in the data set with NC[C@@H](O)P(=O)(O)O, the Km came to 530 µM and the catalytic constant (kcat) was 6.6 s⁻¹.

Usually stoichiometry N stands for a count of units in the complex or per binding partner. As usually defined, the inhibition is the change of the read-out against control, counted positive when it falls. As a reminder, the Km is the substrate concentration at which the rate is half of its maximum. By kcat is commonly meant the maximal rate divided by the concentration of active sites.
